Source: patent publication US20160130315A1 (AJOU UNIVERSITY INDUSTRY ACADEMIC COOPERATION FOUNDATION, published 2016)
Where two headings read alike, the source gives them in different places. One block for each binder: values may come before it.

B2: Sema3A (26-760) (ligand, UniProt Q14563 26-760, looked up)
chain: KNNVPRLKLSYKEMLESNNVITFNGLANSSSYHTFLLDEERSRLYVGAKDHIFSFDLVNIKDFQKIVWPVSYTRRDECKWAGKDILKECANFIKVLKAYNQTHLYACGTGAFHPICTYIEIGHHPEDNIFKLENSHFENGRGKSPYDPKLLTASLLIDGELYSGTAADFMGRDFAIFRTLGHHHPIRTEQHDSRWLNDPKFISAHLISESDNPEDDKVYFFFRENAIDGEHSGKATHARIGQICKNDFGGHRSLVNKWTTFLKARLICSVPGPNGIDTHFDELQDVFLMNFKDPKNPVVYGVFTTSSNIFKGSAVCMYSMSDVRRVFLGPYAHRDGPNYQWVPYQGRVPYPRPGTCPSKTFGGFDSTKDLPDDVITFARSHPAMYNPVFPMNNRPIVIKTDVNYQFTQIVVDRVDAEDGQYDVMFIGTDVGTVLKVVSIPKETWYDLEEVLLEEMTVFREPTAISAMELSTKQQQLYIGSTAGVAQLPLHRCDIYGKACAECCLARDPYCAWDGSACSRYFPTAKRRTRRQDIRNGDPLTHCSDLHHDNHHGHSPEERIIYGVENSSTFLECSPKSQRALVYWQFQRRNEERKEEIRVDDHIIRTDQGLLLRSLQQKDSGNYLCHAVEHGFIQTLLKVTLEVIDTEHLEELLHKDDDGDGSKTKEMSNSMTPSQKVWYRDFMQLINHPNLNTMDEFCEQVWKRDRKQRRQRPGHTPGNSNKWKHLQENKKGRNRR
notes: range 26-760; Control ligand; Biotinylated in the ELISA; also called Semaphorin3A; Semaphorin 3A
B3: b1b2 domains (273-586) of neuropilin-1 (receptor, UniProt O14786 273-586, looked up)
chain: FKCMEALGMESGEIHSDQITASSQYSTNWSAERSRLNYPENGWTPGEDSYREWIQVDLGLLRFVTAVGTQGAISKETKKKYYVKTYKIDVSSNGEDWITIKEGNKPVLFQGNTNPTDVVVAVFPKPLITRFVRIKPATWETGISMRFEVYGCKITDYPCSGMLGMVSGLISDSQITSSNQGDRNWMPENIRLVTSRSGWALPPAPHSYINEWLQIDLGEEKIVRGIIIQGGKHRENKVFMRKFKIGYSNNGSDWKMIMDDSKRKAKSFEGNNNYDTPELRTFPALSTRFIRIYPERATHGGLGLRMELLGCEVE
notes: range 273-586; Purified soluble domain; No tag described; also called NRP1-b1b2; NRP-1 b1b2
B4: b1b2 domains (275-595) of neuropilin-2 (receptor, UniProt O60462 275-595, looked up)
chain: FQCNVPLGMESGRIANEQISASSTYSDGRWTPQQSRLHGDDNGWTPNLDSNKEYLQVDLRFLTMLTAIATQGAISRETQNGYYVKSYKLEVSTNGEDWMVYRHGKNHKVFQANNDATEVVLNKLHAPLLTRFVRIRPQTWHSGIALRLELFGCRVTDAPCSNMLGMLSGLIADSQISASSTQEYLWSPSAARLVSSRSGWFPRIPQAQPGEEWLQVDLGTPKTVKGVIIQGARGGDSITAVEARAFVRKFKVSYSLNGKDWEYIQDPRTQQPKLFEGNMHYDTPDIRRFDPIPAQYVRVYPERWSPAGIGMRLEVLGCDWT
notes: range 275-595; Purified soluble domain; also called NRP2-b1b2; NRP-2 b1b2

Key:
[1] = target: B3; experiment: competition ELISA on plate-bound NRP1-b1b2: VEGF165 titrated against Fc-15A22P (30 nM), absorbance at 405 nm [left panel Fc-15A22P]
Description: (§1) Specifically, b1b2 domains (273-586) of neuropilin-1 and b1b2 domains (275-595) of neuropilin-2 were bound in 96-well EIA/RIA plates (COSTAR Corning In., USA) at room temperature for 1 hour, and then washed three times for 10 minutes with 0.1% PBST (0.1% Tween20, pH 7.4, 137 mM NaCl, 10 mM Phosphate, 2.7 mM KCl, SIGMA-ALDRICH co., USA). After binding for 1 hour with 5% skim milk (pH 7.4, 137 mM NaCl, 10 mM Phosphate, 2.7 mM KCl, SIGMA-ALDRICH co., USA), it was washed three times for 10 minutes with 0.1% PBST (0.1% Tween20, pH 7.4, 137 mM NaCl, 10 mM Phosphate, 2.7 mM KCl, SIGMA-ALDRICH co., USA).

[2] = target: B3; experiment: competition ELISA on plate-bound NRP1-b1b2: VEGF165 titrated against Fc-15F22P (30 nM), absorbance at 405 nm [right panel Fc-15F22P]
Description: as §1

[3] = target: B4; experiment: SPR Biacore 2000, NRP b1b2 on CM5 chip
Description: (§2) Specifically, each b1b2 domain of neuropilin-1 and -2 was diluted with 10 mM Na-acetate buffer (pH 4.0), and fixed onto CM5 sensor chips (GE healthcare, USA) in about 1000 response units (RU). […] After bond and dissociation analysis, the regeneration of CM5 chip was performed by streaming a buffer (20 Mm NaOH, 1 M NaCl, pH 10.0) at a stream velocity 30 μl/min for 1 minute.

[4] = target: B3; experiment: SPR Biacore 2000, NRP b1b2 on CM5 chip
Description: as §2

[5] = target: B4; experiment: SPR Biacore 2000, NRP b1b2 on CM5 chip; remark: listed apart in the source
Description: as §2

[6] = target: B3; experiment: SPR Biacore 2000, NRP b1b2 on CM5 chip; remark: listed apart in the source
Description: as §2

[7] = target: B3; experiment: competition ELISA on plate-bound NRP1-b1b2: Sema3A titrated against Fc-15A22P (30 nM), absorbance at 405 nm [left panel Fc-15A22P]
Description: as §1

[8] = target: B3; experiment: competition ELISA on plate-bound NRP1-b1b2: Sema3A titrated against Fc-15F22P (30 nM), absorbance at 405 nm [right panel Fc-15F22P]
Description: as §1

[9] = target: B2; experiment: SPR Biacore 2000, NRP b1b2 on CM5 chip
[10] = target: T1, Sema3F (19-779) (UniProt Q13275 19-779); experiment: SPR Biacore 2000, NRP b1b2 on CM5 chip
T1 construct: range 19-779; Control ligand; Biotinylated in the ELISA; also called Semaphorin 3F
T1 sequence (looked up): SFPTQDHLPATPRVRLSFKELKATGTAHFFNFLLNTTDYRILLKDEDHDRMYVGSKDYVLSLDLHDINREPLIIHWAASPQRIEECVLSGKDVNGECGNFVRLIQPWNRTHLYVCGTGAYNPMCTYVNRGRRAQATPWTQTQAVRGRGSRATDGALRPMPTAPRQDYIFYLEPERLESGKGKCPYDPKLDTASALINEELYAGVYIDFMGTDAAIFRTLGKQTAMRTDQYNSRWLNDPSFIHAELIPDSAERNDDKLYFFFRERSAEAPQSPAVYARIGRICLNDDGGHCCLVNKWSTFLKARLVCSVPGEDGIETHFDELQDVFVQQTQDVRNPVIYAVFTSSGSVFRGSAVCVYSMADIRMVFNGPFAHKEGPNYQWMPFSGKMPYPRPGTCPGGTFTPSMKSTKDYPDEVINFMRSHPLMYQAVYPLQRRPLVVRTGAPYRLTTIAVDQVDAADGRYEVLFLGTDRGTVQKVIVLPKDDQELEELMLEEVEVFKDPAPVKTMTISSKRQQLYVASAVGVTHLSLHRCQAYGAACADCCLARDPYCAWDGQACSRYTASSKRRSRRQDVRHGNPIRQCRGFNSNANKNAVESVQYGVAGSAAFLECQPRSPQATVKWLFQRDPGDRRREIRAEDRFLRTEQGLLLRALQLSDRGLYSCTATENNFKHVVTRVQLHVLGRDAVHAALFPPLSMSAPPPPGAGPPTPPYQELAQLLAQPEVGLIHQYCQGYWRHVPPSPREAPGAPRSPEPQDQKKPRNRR
Description: as §2

IC50 (read off the curve) [1]: ~3 nM | IC50 (read off the curve) [2]: ~2 nM | Kd [3]: 32 nM | koff [3]: 0.00373 s⁻¹ | kon [3]: 117000 M⁻¹ s⁻¹ | Kd [4]: 3.51 nM | koff [4]: 0.00342 s⁻¹ | kon [4]: 975000 M⁻¹ s⁻¹ | Kd [5]: 32 nM | koff [5]: 0.00373 s⁻¹ | kon [5]: 117000 M⁻¹ s⁻¹ | Kd [6]: 3.51 nM | koff [6]: 0.00342 s⁻¹ | kon [6]: 975000 M⁻¹ s⁻¹
B1: VEGF165A (ligand, UniProt P15692-4 27-191, looked up)
chain: APMAEGGGQNHHEVVKFMDVYQRSYCHPIETLVDIFQEYPDEIEYIFKPSCVPLMRCGGCCNDEGLECVPTEESNITMQIMRIKPHQGQHIGEMSFLQHNKCECRPKKDRARQENPCGPCSERRKHLFVQDPQTCKCSCKNTDSRCKARQLELNERTCRCDKPRR
notes: Control ligand; biotinylated in the ELISA; also called vascular endothelial cell growth factor-A

Binder: B2
IC50 (read off the curve) [7]: ~20 nM | IC50 (read off the curve) [8]: ~20 nM

Binder: B3
Kd [9]: 27.9 nM | koff [9]: 0.000808 s⁻¹ | kon [9]: 28900 M⁻¹ s⁻¹ | Kd [10]: 245 nM | koff [10]: 0.000973 s⁻¹ | kon [10]: 3980 M⁻¹ s⁻¹

Binder: B4
Kd [9]: 231 nM | koff [9]: 0.00161 s⁻¹ | kon [9]: 6960 M⁻¹ s⁻¹ | Kd [10]: 345 nM | koff [10]: 0.0015 s⁻¹ | kon [10]: 4340 M⁻¹ s⁻¹
